According to US20220306739A1 (Janssen / Centocor, published 2022):

Key:
[1] = target: T1, TRBC2 TCR on HPB-ALL cells (human, UniProt A0A5B9 1-178); test: flow cytometry cell binding to HPB-ALL cells (TRBC2), signal:background ratio
T1 construct: whole, on cells; Only the constant domain is named; also called HPB-ALL cell line that endogenously expresses TRBC2 TCR
T1 TCR beta (looked up): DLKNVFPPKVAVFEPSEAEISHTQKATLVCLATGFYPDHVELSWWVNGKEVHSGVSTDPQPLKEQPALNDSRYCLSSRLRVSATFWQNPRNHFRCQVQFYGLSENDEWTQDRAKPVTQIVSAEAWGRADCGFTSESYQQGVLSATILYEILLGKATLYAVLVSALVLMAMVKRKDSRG

[2] = target: T2, TCR with TRBC1 on Jurkat cells (human, UniProt P01850 1-176); test: flow cytometry on TRBC1 expressing Jurkat cells
T2 construct: whole, on cells; Only the constant domain is named; also called TRBC1 expressing Jurkat cell lines; transfected Jurkat cells
T2 TCR beta (looked up): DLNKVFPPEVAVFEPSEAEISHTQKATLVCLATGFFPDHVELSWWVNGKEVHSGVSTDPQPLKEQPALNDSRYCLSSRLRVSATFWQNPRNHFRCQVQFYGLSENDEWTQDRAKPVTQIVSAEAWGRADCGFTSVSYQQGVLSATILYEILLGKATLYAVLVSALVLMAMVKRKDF
Description: Cells were washed with wash buffer (PBS+2% FBS) and the fluorescence of stained cells was measured on Novocyte flow cytometer. Cells were visualized on forward and sideward scatter and doublets were excluded. No secondary antibody control was used to establish background fluorescence and to gate on specific population. Background value was subtracted from main samples to get specific binding value.

B1: anti-TRBC1 antibody JOVI-1 mIgG2a (TRB1B1) (antibody, V domains shown)
VH: EVRLQQSGPDLIKPGASVKMSCKASGYTFTGYVMHWVKQRPGQGLEWIGFINPYNDDIQSNERFRGKATLTSDKSSTTAYMELSSLTSEDSAVYYCARGAGYNFDGAYRFFDFWGQGTTLTVSS
VL: DVVMTQSPLSLPVSLGDQASISCRSSQRLVHSNGNTYLHWYLQKPGQSPKLLIYRVSNRFPGVPDRFSGSGSGTDFTLKISRVEAEDLGIYFCSQSTHVPYTFGGGTKLEIK
notes: Mouse IgG2a monoclonal, commercially sourced; also called mJOVI-1; mouse anti-human TRBC1 clone JOVI-1 mAb
**Q.** Does B1 bind [1]?
**A.** no binding

**Q.** What about the EC50 [2] of the same binder?
**A.** 1 to 2 nM
